Assay results as given in patent publication US20200277400A1.
Blank lines part the entries; values can stand above or below the substance they belong to.

How the values were obtained:
meHER2(Lc-Hc):28ζ CAR [1] = assay: flow cytometry, T cells pre-bound to meditope peptide, then protein L; untransduced control 0.50%
meHER2(Hc-Lc):28ζ CAR [2] = assay: as above
meHER2(Lc-Hc):28ζ CAR [3] = assay: flow cytometry, meditope-AF647 staining of lentivirally transduced primary human T cells; untransduced control 1.83%
meHER2(Hc-Lc):28ζ CAR [4] = assay: as above
[5] = target: Fab (meditope-binding Fab, not further named); assay: method not stated
meHER2(Lc-Hc):28ζ CAR [6] = assay: flow cytometry, T cells pre-bound to meditope peptide, then protein L; untransduced control 7.23%
meHER2(Hc-Lc):28ζ CAR [7] = assay: as above
meHER2(Hc-Lc):28ζ CAR [8] = assay: flow cytometry, protein L staining of lentivirally transduced primary human T cells; untransduced control 13.16%
meHER2(Lc-Hc):28ζ CAR [9] = assay: flow cytometry, T cells pre-bound to meditope peptide, then protein L; untransduced control 0.63%
meHER2(Hc-Lc):28ζ CAR [10] = assay: as above

Sequence of meHER2(Hc-Lc):28ζ CAR (heavy, as listed by the source limits assumed, chain 1 of 2): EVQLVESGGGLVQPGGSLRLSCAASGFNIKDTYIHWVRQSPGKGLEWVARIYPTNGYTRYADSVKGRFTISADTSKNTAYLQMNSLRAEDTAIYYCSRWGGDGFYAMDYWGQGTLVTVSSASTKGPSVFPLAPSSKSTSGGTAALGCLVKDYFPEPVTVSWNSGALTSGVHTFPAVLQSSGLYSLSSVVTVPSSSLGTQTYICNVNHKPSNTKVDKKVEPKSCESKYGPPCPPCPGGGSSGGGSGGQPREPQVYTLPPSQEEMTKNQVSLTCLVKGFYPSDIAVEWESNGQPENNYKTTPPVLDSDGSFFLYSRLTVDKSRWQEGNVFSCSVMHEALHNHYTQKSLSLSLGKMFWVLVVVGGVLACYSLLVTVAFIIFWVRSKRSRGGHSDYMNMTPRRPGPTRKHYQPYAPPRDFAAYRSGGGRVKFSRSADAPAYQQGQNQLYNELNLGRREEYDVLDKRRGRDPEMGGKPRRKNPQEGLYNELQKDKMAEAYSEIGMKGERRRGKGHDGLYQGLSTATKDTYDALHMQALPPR
Sequence of meHER2(Hc-Lc):28ζ CAR (light, as listed by the source limits assumed, chain 2 of 2): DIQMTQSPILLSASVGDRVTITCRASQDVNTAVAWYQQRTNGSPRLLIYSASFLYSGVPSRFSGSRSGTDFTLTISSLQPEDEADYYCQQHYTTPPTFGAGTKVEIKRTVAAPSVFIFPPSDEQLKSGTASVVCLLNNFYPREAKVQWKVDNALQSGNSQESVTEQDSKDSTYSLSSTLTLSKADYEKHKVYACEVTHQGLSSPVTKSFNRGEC
Sequence of meHER2(Lc-Hc):28ζ CAR (heavy, as listed by the source limits assumed, chain 1 of 2): as the sequence (heavy, as listed by the source limits assumed, chain 1 of 2) above
Sequence of meHER2(Lc-Hc):28ζ CAR (light, as listed by the source limits assumed, chain 2 of 2): as the sequence (light, as listed by the source limits assumed, chain 2 of 2) above

% of cells Meditope+ Protein L- (upper left quadrant) (meHER2(Lc-Hc):28ζ CAR [1]): 2.09% | % of cells Meditope+ Protein L- (upper left quadrant) (meHER2(Hc-Lc):28ζ CAR [2]): 2.6% | % of cells in the positive gate (meHER2(Lc-Hc):28ζ CAR [3]): 57.1% | % of cells in the positive gate (meHER2(Hc-Lc):28ζ CAR [4]): 54.4%
Substance: meditope-AF647 (peptide)

estimated half-life of the complex [5]: > 80 days
Substance: meditope-protein L fusion (MPL)

% of cells Meditope- Protein L+ (lower right quadrant) (meHER2(Lc-Hc):28ζ CAR [6]): 16.1% | % of cells Meditope- Protein L+ (lower right quadrant) (meHER2(Hc-Lc):28ζ CAR [7]): 4.04% | % of cells in the positive gate (meHER2(Hc-Lc):28ζ CAR [8]): 51.8% | % of cells Meditope+ Protein L+ (upper right quadrant) (meHER2(Lc-Hc):28ζ CAR [9]): 43.1% | % of cells Meditope+ Protein L+ (upper right quadrant) (meHER2(Hc-Lc):28ζ CAR [10]): 42.1%
Substance: protein L
